Where two headings read alike, the source gives them in different places.
Assays:
Assay in all cases: EMSA
[1] = molecular target: T1, Ku70DM/80TM (human, UniProt P12956;P13010 1-609;1-732, K357A;K358A;K233A;K238A;K239A)
[2] = molecular target: T2, Ku70DM/80DM (human, UniProt P12956;P13010 1-609;1-732, K357A;K358A;K238A;K239A)
[3] = molecular target: T3, Ku70DM/80 (human, UniProt P12956;P13010 1-609;1-732, K358A;Ku70:K357A)
[4] = molecular target: Ku70/80DM (human, UniProt P12956;P13010 1-609;1-732, K239A;Ku80:K238A)
Ku70/80DM, sequence (P12956 whole entry, stated change not applied, chain 1 of 2): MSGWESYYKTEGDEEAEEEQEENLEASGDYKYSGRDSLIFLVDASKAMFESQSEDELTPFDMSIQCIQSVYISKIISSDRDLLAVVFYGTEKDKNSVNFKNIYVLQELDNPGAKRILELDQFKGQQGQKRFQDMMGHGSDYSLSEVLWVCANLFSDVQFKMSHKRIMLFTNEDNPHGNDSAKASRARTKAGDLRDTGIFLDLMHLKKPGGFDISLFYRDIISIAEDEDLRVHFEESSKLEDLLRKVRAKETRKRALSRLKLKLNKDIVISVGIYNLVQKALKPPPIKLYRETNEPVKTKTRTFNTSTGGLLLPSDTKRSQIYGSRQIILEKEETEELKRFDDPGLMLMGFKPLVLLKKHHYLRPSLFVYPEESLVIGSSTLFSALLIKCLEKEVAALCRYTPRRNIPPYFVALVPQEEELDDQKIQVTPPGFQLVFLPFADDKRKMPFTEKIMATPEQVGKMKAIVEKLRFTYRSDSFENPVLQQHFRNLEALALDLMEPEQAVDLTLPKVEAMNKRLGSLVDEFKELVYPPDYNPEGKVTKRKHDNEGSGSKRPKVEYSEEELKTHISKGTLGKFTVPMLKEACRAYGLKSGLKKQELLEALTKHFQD
Ku70/80DM, sequence (P13010 whole entry K239A, chain 2 of 2): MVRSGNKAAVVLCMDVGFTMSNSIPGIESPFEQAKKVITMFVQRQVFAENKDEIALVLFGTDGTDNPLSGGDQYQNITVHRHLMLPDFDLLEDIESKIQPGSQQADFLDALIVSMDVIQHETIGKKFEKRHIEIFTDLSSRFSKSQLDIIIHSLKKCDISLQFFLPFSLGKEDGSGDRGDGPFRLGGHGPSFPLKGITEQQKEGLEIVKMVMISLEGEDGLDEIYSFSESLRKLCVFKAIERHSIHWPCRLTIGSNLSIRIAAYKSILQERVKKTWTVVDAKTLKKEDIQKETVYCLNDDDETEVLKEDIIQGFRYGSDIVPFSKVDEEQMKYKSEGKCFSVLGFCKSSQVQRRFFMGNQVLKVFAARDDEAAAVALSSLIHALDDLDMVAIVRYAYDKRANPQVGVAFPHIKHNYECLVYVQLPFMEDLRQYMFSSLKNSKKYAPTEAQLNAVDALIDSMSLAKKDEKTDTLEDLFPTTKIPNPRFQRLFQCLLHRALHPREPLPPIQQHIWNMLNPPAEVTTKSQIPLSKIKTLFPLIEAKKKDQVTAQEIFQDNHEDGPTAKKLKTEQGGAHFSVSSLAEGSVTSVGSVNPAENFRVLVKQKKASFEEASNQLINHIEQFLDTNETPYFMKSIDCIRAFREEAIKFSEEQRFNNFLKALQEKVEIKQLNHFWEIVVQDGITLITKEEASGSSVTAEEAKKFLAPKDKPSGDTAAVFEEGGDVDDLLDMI

[5] = molecular target: T4, Ku70/80TM (human, UniProt P12956;P13010 1-609;1-732, K238A;K239A;Ku80:K233A)
T4 sequence (P12956 whole entry, stated change not applied, chain 1 of 2): as the sequence (P12956 whole entry, stated change not applied, chain 1 of 2) above
T4 sequence (P13010 whole entry K238A/K239A, chain 2 of 2): as the sequence (P13010 whole entry K239A, chain 2 of 2) above, with K238A counted along it

[6] = molecular target: T5, Ku70/80 wild-type (human, UniProt P12956;P13010 1-609;1-732)
T5 sequence (P12956 whole entry, chain 1 of 2): as the sequence (P12956 whole entry, stated change not applied, chain 1 of 2) above
T5 sequence (P13010 whole entry, chain 2 of 2): as the sequence (P13010 whole entry K239A, chain 2 of 2) above, with A239K counted along it

[7] = molecular target: T5, Ku70/80 wild-type; remark: listed apart in the source
[8] = molecular target: T1, Ku70DM/80TM; remark: listed apart in the source
[9] = molecular target: T2, Ku70DM/80DM; remark: listed apart in the source
[10] = molecular target: T3, Ku70DM/80; remark: listed apart in the source
[11] = molecular target: T4, Ku70/80TM; remark: listed apart in the source

Measured: binding result

T1 sequence (P12956 whole entry K357A/K358A, chain 1 of 2): as the sequence (P12956 whole entry, stated change not applied, chain 1 of 2) above, with K357A, K358A counted along it
T1 sequence (P13010 whole entry K233A/K238A/K239A, chain 2 of 2): as the sequence (P13010 whole entry K239A, chain 2 of 2) above, with K233A, K238A counted along it
T2 sequence (P12956 whole entry K357A/K358A, chain 1 of 2): as the sequence (P12956 whole entry, stated change not applied, chain 1 of 2) above, with K357A, K358A counted along it
T2 sequence (P13010 whole entry K238A/K239A, chain 2 of 2): as the sequence (P13010 whole entry K239A, chain 2 of 2) above, with K238A counted along it
T3 sequence (P12956 whole entry K358A, chain 1 of 2): as the sequence (P12956 whole entry, stated change not applied, chain 1 of 2) above, with K358A counted along it
T3 sequence (P13010 whole entry, stated change not applied, chain 2 of 2): as the sequence (P13010 whole entry K239A, chain 2 of 2) above, with A239K counted along it

B1: 48-bp duplex (two-Ku) (dsDNA)
DNA 1: CTGAGAAAACTGTGCGTCTTCGCGGCAATTGAGAGGCATTCCATTCAC
DNA 2: GTGAATGGAATGCCTCTCAATTGCCGCGAAGACGCACAGTTTTCTCAG
binds: [1] | [2] | [3] | [4] | [5] | [6]

B2: one-Ku duplex with unpaired region (dsDNA)
DNA 1: GTTTTTAGTTTATTGGGCGCG
DNA 2: CGCGCCCAGCTTTCCCAGCTAATAAACTAAAAAC
binds: [7] | [8] | [9] | [10] | [11]

From publication PMC2553570
